The experiment deals with T1, rat nerve growth factor (beta-NGF) (rat, UniProt P25427 122-241).
T1 construct: mature; also called rat NGF; recombinant rat β-NGF
Nature of the experiment: purified scFv, inhibition of NGF binding to coated TrkA fusion protein (DELFIA). How it is done:
Crude scFv samples were prepared from periplasmic lysates of E. coli TG-1 bacteria transfected with selected phage for evaluation in the binding assay. […] Assay plates were washed with PBS/Tween 20, blocked for 2 h using 1% bovine serum albumin (BSA) in PBS, and washed again. […] Samples were transferred in a volume of 100 μl to assay plates and incubated for 60 min at room temperature. […] Briefly, plates were washed and 100 μl streptavidin Eu³⁺ added to each well, diluted 1/1000 in DELFIA assay buffer. Plates were incubated for a further 60 min at room temperature and washed with DELFIA wash buffer, followed by addition of 100 μl DELFIA enhancement solution to each well. Plates were read using a Wallac Victor fluorimetric plate reader (excitation wavelength 314 nm; emission wavelength 615 nm).
Purified scFv preparations were prepared as described in Example 3 of WO01/66754. Protein concentrations of purified scFv preparations were determined using the BCA method (Pierce).

B1: 1057F11 scFv (scFv, V domains shown)
VH: EVQLVETGGGVVQPGTSLRLSCAASGFTFSSHGMHWVRQAPGQGLEWVAHAWSDGSNKYYADSLKGRFTISRDNSRNTLYLQMNSLRAEDTAVYYCARDGQQLANYAMDVWGRGTTVTVSS
VL: DIQMTQSPSFLSASVGDRVTITCRASQGINSYLAWYQQIPGKAPNLLIYAASTLQSGVPSRFSGSGSGTEFTLTISSLQPEDFATYYCQQLNTYPFTFGPGTKVEIK
notes: purified scFv
With B1, the binding result was “binds”.

B2: 1033B2 scFv (scFv, V domains shown)
VH: QVQLQQSGAEVKKPGSSVKLSCKASGGTFSSFGISWVRQAPGQGLEWLGRIIPFLGPADYAQKFQGRVTITADESRSTAYMELSSLTSEDTAVYFCARSFYDILTGYYEGVFYYYMDVWGQGTMVTVSS
VL: QSVLIQPASVSGSPGQSITISCTGTSSDVGGYNYVSWYQQHPGKAPKLMIYEGSKRPSGVSNRFSGSKSGNTASLTISGLQAEDEADYYCSSYTTRSTRVFGGGTKLTVL
notes: purified scFv
With B2, the binding result is “binds”.

The values are drawn from US20080107658A1 (AstraZeneca / MedImmune, published 2008).
